US20250074996A1

Target: CD3E on the surface of Jurkat-NFAT-Luc cells (UniProt P07766)
Assay: cell-based or functional assay

Sequence of CD3E on the surface of Jurkat-NFAT-Luc cells (P07766 23-207): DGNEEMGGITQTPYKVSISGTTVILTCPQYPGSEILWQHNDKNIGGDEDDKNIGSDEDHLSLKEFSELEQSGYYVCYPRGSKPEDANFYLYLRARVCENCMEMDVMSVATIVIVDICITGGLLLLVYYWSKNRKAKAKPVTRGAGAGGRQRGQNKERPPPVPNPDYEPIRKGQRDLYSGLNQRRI

B1: hz11B7.5/SP34.24 (bispecific antibody, V domains shown)
VH 1: QVQLVQSGAEVKKPGSSVKVSCKASGYTFTTYTMHWVRQAPGQGLEWIGFIIPSSGYTSYNQNFKDKVTLTADKSTSTAYMELSSLRSEDTAVYFCTGGQARAYYPLDYWGQGTLVTVSS
VL 1: EIVMTQSPATLSVSPGERATLSCRASQSIGTTIHWYQQKPGQAPRLLIKYASESISGIPSRFSGSGSGTEFTLTISSLQSEDFAVYYCQQSYNWPRTFGGGTKVEIK
VH 2: EVQLVESGGGLVQPGGSLKLSCAASGFTFNTYAMNWVRQASGKGLEWVGRIRSKYNNYATYYADSVKDRFTISRDDSKSTLYLQMNSLKTEDTAVYYCARHGNFGQSYVSWFAYWGQGTTVTVSS
VL 2: QAVVTQEPSLTVSPGGTVTLTCRSSTGAVTTSNYANWVQQKPGQAPRGLIGGTNKRAPGVPARFSGSLLGDKAALTLLGAQPEDEAEYYCALWYSNLWVFGQGTKLTVL
EC50 of Jurkat-NFAT-Luc luciferase activation; tumor cells 8226: 5.39 pM | EC50 of Jurkat-NFAT-Luc luciferase activation; tumor cells ARD: 2.04 pM | EC50 of Jurkat-NFAT-Luc luciferase activation; tumor cells H929: 2.72 pM | EC50 of Jurkat-NFAT-Luc luciferase activation; tumor cells L363: 2.79 pM | EC50 of Jurkat-NFAT-Luc luciferase activation; tumor cells MM.1S: 1.98 pM | EC50 of Jurkat-NFAT-Luc luciferase activation; tumor cells U266: 4.09 pM
